# Numbered stars: 1 amine (or outer) side, 2 acyl side, 3 side chain; on linkers, the order of the positions; unused ones are H or OH. Bridge positions count the residues as written; N and C are the ends. Side chains are listed from the residue outwards. Ends that are not written are not given here. * marks the point of attachment. C20 diacid = O=C(O)CCCCCCCCCCCCCCCCCCC(=O)*; γGlu = O=C(O)[C@H](CCC(=O)[*:2])N[*:1]; AEEA = NCCOCCOCC(=O)O
# T1: human calcitonin receptor (human, UniProt P30988 25-474)
# T1 construct: whole, on cells; also called hCTR; hCT
# T1 sequence (looked up): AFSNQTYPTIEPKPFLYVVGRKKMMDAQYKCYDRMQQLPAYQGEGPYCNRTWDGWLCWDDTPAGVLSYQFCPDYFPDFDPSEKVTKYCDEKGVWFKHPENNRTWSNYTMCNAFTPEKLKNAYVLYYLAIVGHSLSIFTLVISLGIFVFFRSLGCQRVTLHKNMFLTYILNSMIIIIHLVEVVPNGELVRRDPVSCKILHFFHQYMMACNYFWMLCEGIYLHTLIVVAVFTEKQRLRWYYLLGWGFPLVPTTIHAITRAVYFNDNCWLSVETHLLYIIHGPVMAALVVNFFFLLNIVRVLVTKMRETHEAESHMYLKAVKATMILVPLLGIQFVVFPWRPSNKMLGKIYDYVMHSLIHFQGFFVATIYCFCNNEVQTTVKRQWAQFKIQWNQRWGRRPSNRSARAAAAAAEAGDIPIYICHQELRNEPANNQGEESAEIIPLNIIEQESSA
# B1: N^α1-[(4S)-4-carboxy-4-(19-carboxynonadecanoylamino)butanoyl]-[Glu14,Arg17,Pro21,Pro27,Pro37]-h-amylin (peptide)
# peptide: {C20 diacid-γGlu}-KCNTATCATQRLAEFLRHSSPNFGAIPSSTNVGSNTP-NH2
# modifications: disulfide 2-7
# SMILES: CC[C@H](C)[C@H](NC(=O)[C@H](C)NC(=O)CNC(=O)[C@H](Cc1ccccc1)NC(=O)[C@H](CC(N)=O)NC(=O)[C@@H]1CCCN1C(=O)[C@H](CO)NC(=O)[C@H](CO)NC(=O)[C@H](Cc1c[nH]cn1)NC(=O)[C@H](CCCNC(=N)N)NC(=O)[C@H](CC(C)C)NC(=O)[C@H](Cc1ccccc1)NC(=O)[C@H](CCC(=O)O)NC(=O)[C@H](C)NC(=O)[C@H](CC(C)C)NC(=O)[C@H](CCCNC(=N)N)NC(=O)[C@H](CCC(N)=O)NC(=O)[C@@H](NC(=O)[C@H](C)NC(=O)[C@@H]1CSSC[C@H](NC(=O)[C@H](CCCCN)NC(=O)CC[C@H](NC(=O)CCCCCCCCCCCCCCCCCCC(=O)O)C(=O)O)C(=O)N[C@@H](CC(N)=O)C(=O)N[C@@H]([C@@H](C)O)C(=O)N[C@@H](C)C(=O)N[C@@H]([C@@H](C)O)C(=O)N1)[C@@H](C)O)C(=O)N1CCC[C@H]1C(=O)N[C@@H](CO)C(=O)N[C@@H](CO)C(=O)N[C@H](C(=O)N[C@@H](CC(N)=O)C(=O)N[C@H](C(=O)NCC(=O)N[C@@H](CO)C(=O)N[C@@H](CC(N)=O)C(=O)N[C@H](C(=O)N1CCC[C@H]1C(N)=O)[C@@H](C)O)C(C)C)[C@@H](C)O
# notes: also called compound 8
# B2: N^α1N^α1-[(4S)-4-carboxy-4-(19-carboxynonadecanoylamino)butanoyl]-[Glu14,Arg17,Pro21,Pro27,Glu35]-h-amylin (peptide)
# peptide: {C20 diacid-γGlu}-KCNTATCATQRLAEFLRHSSPNFGAIPSSTNVGSETY-NH2
# modifications: disulfide 2-7
# SMILES: CC[C@H](C)[C@H](NC(=O)[C@H](C)NC(=O)CNC(=O)[C@H](Cc1ccccc1)NC(=O)[C@H](CC(N)=O)NC(=O)[C@@H]1CCCN1C(=O)[C@H](CO)NC(=O)[C@H](CO)NC(=O)[C@H](Cc1c[nH]cn1)NC(=O)[C@H](CCCNC(=N)N)NC(=O)[C@H](CC(C)C)NC(=O)[C@H](Cc1ccccc1)NC(=O)[C@H](CCC(=O)O)NC(=O)[C@H](C)NC(=O)[C@H](CC(C)C)NC(=O)[C@H](CCCNC(=N)N)NC(=O)[C@H](CCC(N)=O)NC(=O)[C@@H](NC(=O)[C@H](C)NC(=O)[C@@H]1CSSC[C@H](NC(=O)[C@H](CCCCN)NC(=O)CC[C@H](NC(=O)CCCCCCCCCCCCCCCCCCC(=O)O)C(=O)O)C(=O)N[C@@H](CC(N)=O)C(=O)N[C@@H]([C@@H](C)O)C(=O)N[C@@H](C)C(=O)N[C@@H]([C@@H](C)O)C(=O)N1)[C@@H](C)O)C(=O)N1CCC[C@H]1C(=O)N[C@@H](CO)C(=O)N[C@@H](CO)C(=O)N[C@H](C(=O)N[C@@H](CC(N)=O)C(=O)N[C@H](C(=O)NCC(=O)N[C@@H](CO)C(=O)N[C@@H](CCC(=O)O)C(=O)N[C@H](C(=O)N[C@@H](Cc1ccc(O)cc1)C(N)=O)[C@@H](C)O)C(C)C)[C@@H](C)O
# notes: also called compound 22
# B3: N^α1-[(4S)-4-carboxy-4-(19-carboxynonadecanoylamino)butanoyl]-[His14,Arg17,Pro21,Pro27,Glu35]-h-amylin (peptide)
# peptide: {C20 diacid-γGlu}-KCNTATCATQRLAHFLRHSSPNFGAIPSSTNVGSETY-NH2
# modifications: disulfide 2-7
# SMILES: CC[C@H](C)[C@H](NC(=O)[C@H](C)NC(=O)CNC(=O)[C@H](Cc1ccccc1)NC(=O)[C@H](CC(N)=O)NC(=O)[C@@H]1CCCN1C(=O)[C@H](CO)NC(=O)[C@H](CO)NC(=O)[C@H](Cc1c[nH]cn1)NC(=O)[C@H](CCCNC(=N)N)NC(=O)[C@H](CC(C)C)NC(=O)[C@H](Cc1ccccc1)NC(=O)[C@H](Cc1c[nH]cn1)NC(=O)[C@H](C)NC(=O)[C@H](CC(C)C)NC(=O)[C@H](CCCNC(=N)N)NC(=O)[C@H](CCC(N)=O)NC(=O)[C@@H](NC(=O)[C@H](C)NC(=O)[C@@H]1CSSC[C@H](NC(=O)[C@H](CCCCN)NC(=O)CC[C@H](NC(=O)CCCCCCCCCCCCCCCCCCC(=O)O)C(=O)O)C(=O)N[C@@H](CC(N)=O)C(=O)N[C@@H]([C@@H](C)O)C(=O)N[C@@H](C)C(=O)N[C@@H]([C@@H](C)O)C(=O)N1)[C@@H](C)O)C(=O)N1CCC[C@H]1C(=O)N[C@@H](CO)C(=O)N[C@@H](CO)C(=O)N[C@H](C(=O)N[C@@H](CC(N)=O)C(=O)N[C@H](C(=O)NCC(=O)N[C@@H](CO)C(=O)N[C@@H](CCC(=O)O)C(=O)N[C@H](C(=O)N[C@@H](Cc1ccc(O)cc1)C(N)=O)[C@@H](C)O)C(C)C)[C@@H](C)O
# notes: also called compound 30
# B4: N^α1-[(4S)-4-carboxy-4-[[(4S)-4-carboxy-4-(19-carboxynonadecanoylamino)butanoyl]amino]butanoyl]-[Glu14,Arg17,Pro21,Pro27,Pro37]-h-amylin (peptide)
# peptide: {C20 diacid-γGlu-γGlu}-KCNTATCATQRLAEFLRHSSPNFGAIPSSTNVGSNTP-NH2
# modifications: disulfide 2-7
# SMILES: CC[C@H](C)[C@H](NC(=O)[C@H](C)NC(=O)CNC(=O)[C@H](Cc1ccccc1)NC(=O)[C@H](CC(N)=O)NC(=O)[C@@H]1CCCN1C(=O)[C@H](CO)NC(=O)[C@H](CO)NC(=O)[C@H](Cc1c[nH]cn1)NC(=O)[C@H](CCCNC(=N)N)NC(=O)[C@H](CC(C)C)NC(=O)[C@H](Cc1ccccc1)NC(=O)[C@H](CCC(=O)O)NC(=O)[C@H](C)NC(=O)[C@H](CC(C)C)NC(=O)[C@H](CCCNC(=N)N)NC(=O)[C@H](CCC(N)=O)NC(=O)[C@@H](NC(=O)[C@H](C)NC(=O)[C@@H]1CSSC[C@H](NC(=O)[C@H](CCCCN)NC(=O)CC[C@H](NC(=O)CC[C@H](NC(=O)CCCCCCCCCCCCCCCCCCC(=O)O)C(=O)O)C(=O)O)C(=O)N[C@@H](CC(N)=O)C(=O)N[C@@H]([C@@H](C)O)C(=O)N[C@@H](C)C(=O)N[C@@H]([C@@H](C)O)C(=O)N1)[C@@H](C)O)C(=O)N1CCC[C@H]1C(=O)N[C@@H](CO)C(=O)N[C@@H](CO)C(=O)N[C@H](C(=O)N[C@@H](CC(N)=O)C(=O)N[C@H](C(=O)NCC(=O)N[C@@H](CO)C(=O)N[C@@H](CC(N)=O)C(=O)N[C@H](C(=O)N1CCC[C@H]1C(N)=O)[C@@H](C)O)C(C)C)[C@@H](C)O
# notes: also called compound 14
# B5: N^ε1-[2-[2-[2-(19-carboxynonadecanoylamino)ethoxy]ethoxy]acetyl]-[Arg17,Pro21,Pro27]-h-amylin (peptide)
# peptide: K([AEEA-C20 diacid])CNTATCATQRLANFLRHSSPNFGAIPSSTNVGSNTY-NH2
# modifications: disulfide 2-7; N-terminus assumed
# SMILES: CC[C@H](C)[C@H](NC(=O)[C@H](C)NC(=O)CNC(=O)[C@H](Cc1ccccc1)NC(=O)[C@H](CC(N)=O)NC(=O)[C@@H]1CCCN1C(=O)[C@H](CO)NC(=O)[C@H](CO)NC(=O)[C@H](Cc1c[nH]cn1)NC(=O)[C@H](CCCNC(=N)N)NC(=O)[C@H](CC(C)C)NC(=O)[C@H](Cc1ccccc1)NC(=O)[C@H](CC(N)=O)NC(=O)[C@H](C)NC(=O)[C@H](CC(C)C)NC(=O)[C@H](CCCNC(=N)N)NC(=O)[C@H](CCC(N)=O)NC(=O)[C@@H](NC(=O)[C@H](C)NC(=O)[C@@H]1CSSC[C@H](NC(=O)[C@@H](N)CCCCNC(=O)COCCOCCNC(=O)CCCCCCCCCCCCCCCCCCC(=O)O)C(=O)N[C@@H](CC(N)=O)C(=O)N[C@@H]([C@@H](C)O)C(=O)N[C@@H](C)C(=O)N[C@@H]([C@@H](C)O)C(=O)N1)[C@@H](C)O)C(=O)N1CCC[C@H]1C(=O)N[C@@H](CO)C(=O)N[C@@H](CO)C(=O)N[C@H](C(=O)N[C@@H](CC(N)=O)C(=O)N[C@H](C(=O)NCC(=O)N[C@@H](CO)C(=O)N[C@@H](CC(N)=O)C(=O)N[C@H](C(=O)N[C@@H](Cc1ccc(O)cc1)C(N)=O)[C@@H](C)O)C(C)C)[C@@H](C)O
# notes: also called compound 43
# B6: N^ε1-[2-[2-[2-[[2-[2-[2-[[(4S)-4-carboxy-4-(19-carboxynonadecanoylamino)butanoyl]amino]ethoxy]ethoxy]acetyl]amino]ethoxy]ethoxy]acetyl]-[Arg17,Pro21,Pro27,Glu35 … (peptide)
# peptide: K([AEEA-AEEA-γGlu-C20 diacid])CNTATCATQRLANFLRHSSPNFGAIPSSTNVGSETY-NH2
# modifications: disulfide 2-7; N-terminus assumed
# SMILES: CC[C@H](C)[C@H](NC(=O)[C@H](C)NC(=O)CNC(=O)[C@H](Cc1ccccc1)NC(=O)[C@H](CC(N)=O)NC(=O)[C@@H]1CCCN1C(=O)[C@H](CO)NC(=O)[C@H](CO)NC(=O)[C@H](Cc1c[nH]cn1)NC(=O)[C@H](CCCNC(=N)N)NC(=O)[C@H](CC(C)C)NC(=O)[C@H](Cc1ccccc1)NC(=O)[C@H](CC(N)=O)NC(=O)[C@H](C)NC(=O)[C@H](CC(C)C)NC(=O)[C@H](CCCNC(=N)N)NC(=O)[C@H](CCC(N)=O)NC(=O)[C@@H](NC(=O)[C@H](C)NC(=O)[C@@H]1CSSC[C@H](NC(=O)[C@@H](N)CCCCNC(=O)COCCOCCNC(=O)COCCOCCNC(=O)CC[C@H](NC(=O)CCCCCCCCCCCCCCCCCCC(=O)O)C(=O)O)C(=O)N[C@@H](CC(N)=O)C(=O)N[C@@H]([C@@H](C)O)C(=O)N[C@@H](C)C(=O)N[C@@H]([C@@H](C)O)C(=O)N1)[C@@H](C)O)C(=O)N1CCC[C@H]1C(=O)N[C@@H](CO)C(=O)N[C@@H](CO)C(=O)N[C@H](C(=O)N[C@@H](CC(N)=O)C(=O)N[C@H](C(=O)NCC(=O)N[C@@H](CO)C(=O)N[C@@H](CCC(=O)O)C(=O)N[C@H](C(=O)N[C@@H](Cc1ccc(O)cc1)C(N)=O)[C@@H](C)O)C(C)C)[C@@H](C)O
# notes: also called compound 25
# Molecular target: T1, human calcitonin receptor
# Assay: SPA competition binding, membranes with human calcitonin receptor, displacement of 125I-calcitonin (Assay VII)
# Method in brief: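 BHK hCTR membranes 35 ng/μL + SPA beads 0.05 mg/well; buffer 50 mM Hepes pH 7.4, 1 mM CaCl2, 5 mM MgCl₂, 0.1% OA, 0.02% Tween20. 120 min, 25° C., shaking. Scintillation count; IC50 by one-site binding competition.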
row,IC50,Binder
1,0.038 nM,B1
2,9.73 nM,B2
3,21.6 nM,B3
4,0.432 nM,B4
5,2.64 nM,B5
6,43.4 nM,B6
7,3.61 nM,"{C20 diacid-γGlu}-KCNTATCATQRLAEFLRHSSPNFGAILPSTNVGSETY-NH2 (disulfide 2-7, also called compound 33)"

# Molecular target: T1, human calcitonin receptor
# Assay: ratio of IC50 at hCTR to IC50 at the human amylin receptor (reference)
# Method in brief: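 Competition binding by SPA uses membrane preparations (35 ng/μL final) in pH 7.4 Hepes buffer with 1 mM CaCl2 and 5 mM MgCl₂. Incubation lasts 120 min at 25° C, and IC₅₀ comes from one-site fitting.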
row,Ratio hCT/hAmylin binding,Binder
1,0.5,B1
2,12.3,B2
3,23.6,B3
4,2.2,B4
5,34.7,B5
6,56.5,B6
7,3.9,"{C20 diacid-γGlu}-KCNTATCATQRLAEFLRHSSPNFGAILPSTNVGSETY-NH2 (disulfide 2-7, also called compound 33)"

# Source: US20140087995A1 (published 2014)
